Test [1] concerns the target T1, MEF2A (human, UniProt Q02078 1-507). The experiment in a line: SPR.
The target in test [2] is T1, MEF2A. The experiment in a line: SPR. This is another data set of the same source.

Our source for the koff and Kd values is paper PMC12199305 (2025).

T1 sequence (Q02078 whole entry): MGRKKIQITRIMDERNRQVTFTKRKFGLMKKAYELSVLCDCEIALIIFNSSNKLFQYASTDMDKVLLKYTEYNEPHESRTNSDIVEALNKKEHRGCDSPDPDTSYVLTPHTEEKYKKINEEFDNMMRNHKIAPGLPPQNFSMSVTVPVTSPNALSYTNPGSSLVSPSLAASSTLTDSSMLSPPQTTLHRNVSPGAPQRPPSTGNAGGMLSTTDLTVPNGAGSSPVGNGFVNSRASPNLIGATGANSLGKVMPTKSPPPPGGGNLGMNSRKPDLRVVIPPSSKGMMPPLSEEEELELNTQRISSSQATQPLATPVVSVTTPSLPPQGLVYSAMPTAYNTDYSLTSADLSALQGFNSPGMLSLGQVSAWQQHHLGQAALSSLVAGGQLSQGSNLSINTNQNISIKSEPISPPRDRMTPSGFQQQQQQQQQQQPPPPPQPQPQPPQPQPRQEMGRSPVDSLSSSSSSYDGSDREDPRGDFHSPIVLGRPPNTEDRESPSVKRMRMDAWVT

B1: HDAC4 (enzyme)
chain: MSSQSHPDGLSGRDQPVELLNPARVNHMPSTVDVATALPLQVAPSAVPMDLRLDHQFSLPVAEPALREQQLQQELLALKQKQQIQRQILIAEFQRQHEQLSRQHEAQLHEHIKQQQEMLAMKHQQELLEHQRKLERHRQEQELEKQHREQKLQQLKNKEKGKESAVASTEVKMKLQEFVLNKKKALAHRNLNHCISSDPRYWYGKTQHSSLDQSSPPQSGVSTSYNHPVLGMYDAKDDFPLRKTASEPNLKLRSRLKQKVAERRSSPLLRRKDGPVVTALKKRPLDVTDSACSSAPGSGPSSPNNSSGSVSAENGIAPAVPSIPAETSLAHRLVAREGSAAPLPLYTSPSLPNITLGLPATGPSAGTAGQQDAERLTLPALQQRLSLFPGTHLTPYLSTSPLERDGGAAHSPLLQHMVLLEQPPAQAPLVTGLGALPLHAQSLVGADRVSPSIHKLRQHRPLGRTQSAPLPQNAQALQHLVIQQQHQQFLEKHKQQFQQQQLQMNKIIPKPSEPARQPESHPEETEEELREHQALLDEPYLDRLPGQKEAHAQAGVQVKQEPIESDEEEAEPPREVEPGQRQPSEQELLFRQQALLLEQQRIHQLRNYQASMEAAGIPVSFGGHRPLSRAQSSPASATFPVSVQEPPTKPRFTTGLVYDTLMLKHQCTCGSSSSHPEHAGRIQSIWSRLQETGLRGKCECIRGRKATLEELQTVHSEAHTLLYGTNPLNRQKLDSKKLLGSLASVFVRLPCGGVGVDSDTIWNEVHSAGAARLAVGCVVELVFKVATGELKNGFAVVRPPGHHAEESTPMGFCYFNSVAVAAKLLQQRLSVSKILIVDWDVHHGNGTQQAFYSDPSVLYMSLHRYDDGNFFPGSGAPDEVGTGPGVGFNVNMAFTGGLDPPMGDAEYLAAFRTVVMPIASEFAPDVVLVSSGFDAVEGHPTPLGGYNLSARCFGYLTKQLMGLAGGRIVLALEGGHDLTAICDASEACVSALLGNELDPLPEKVLQQRPNANAVRSMEKVMEIHSKYWRCLQRTTSTAGRSLIEAQTCENEEAETVTAMASLSVGVKPAEKRPDEEPMEEEPPL
Consider B1, for which the koff in test [1] amounted to 0.0025 s⁻¹. Further, binding in test [2] was put at a Kd of 5 nM.

B2: HDAC7 (enzyme)
chain: MDLRVGQRPPVEPPPEPTLLALQRPQRLHHHLFLAGLQQQRSVEPMRLSMDTPMPELQVGPQEQELRQLLHKDKSKRSAVASSVVKQKLAEVILKKQQAALERTVHPNSPGIPYRTLEPLETEGATRSMLSSFLPPVPSLPSDPPEHFPLRKTVSEPNLKLRYKPKKSLERRKNPLLRKESAPPSLRRRPAETLGDSSPSSSSTPASGCSSPNDSEHGPNPILGSEALLGQRLRLQETSVAPFALPTVSLLPAITLGLPAPARADSDRRTHPTLGPRGPILGSPHTPLFLPHGLEPEAGGTLPSRLQPILLLDPSGSHAPLLTVPGLGPLPFHFAQSLMTTERLSGSGLHWPLSRTRSEPLPPSATAPPPPGPMQPRLEQLKTHVQVIKRSAKPSEKPRLRQIPSAEDLETDGGGPGQVVDDGLEHRELGHGQPEARGPAPLQQHPQVLLWEQQRLAGRLPRGSTGDTVLLPLAQGGHRPLSRAQSSPAAPASLSAPEPASQARVLSSSETPARTLPFTTGLIYDSVMLKHQCSCGDNSRHPEHAGRIQSIWSRLQERGLRSQCECLRGRKASLEELQSVHSERHVLLYGTNPLSRLKLDNGKLAGLLAQRMFVMLPCGGVGVDTDTIWNELHSSNAARWAAGSVTDLAFKVASRELKNGFAVVRPPGHHADHSTAMGFCFFNSVAIACRQLQQQSKASKILIVDWDVHHGNGTQQTFYQDPSVLYISLHRHDDGNFFPGSGAVDEVGAGSGEGFNVNVAWAGGLDPPMGDPEYLAAFRIVVMPIAREFSPDLVLVSAGFDAAEGHPAPLGGYHVSAKCFGYMTQQLMNLAGGAVVLALEGGHDLTAICDASEACVAALLGNRVDPLSEEGWKQKPNLNAIRSLEAVIRVHSKYWGCMQRLASCPDSWVPRVPGADKEEVEAVTALASLSVGILAEDRPSEQLVEEEEPMNL
In turn, B2 showed a koff in test [1] of 0.00082 s⁻¹. Binding in test [2] was characterised by a dissociation constant (Kd) of 3.5 nM.

B3: HDAC9 (enzyme)
chain: MHSMISSVDVKSEVPVGLEPISPLDLRTDLRMMMPVVDPVVREKQLQQELLLIQQQQQIQKQLLIAEFQKQHENLTRQHQAQLQEHIKELLAIKQQQELLEKEQKLEQQRQEQEVERHRREQQLPPLRGKDRGRERAVASTEVKQKLQEFLLSKSATKDTPTNGKNHSVSRHPKLWYTAAHHTSLDQSSPPLSGTSPSYKYTLPGAQDAKDDFPLRKTASEPNLKVRSRLKQKVAERRSSPLLRRKDGNVVTSFKKRMFEVTESSVSSSSPGSGPSSPNNGPTGSVTENETSVLPPTPHAEQMVSQQRILIHEDSMNLLSLYTSPSLPNITLGLPAVPSQLNASNSLKEKQKCETQTLRQGVPLPGQYGGSIPASSSHPHVTLEGKPPNSSHQALLQHLLLKEQMRQQKLLVAGGVPLHPQSPLATKERISPGIRGTHKLPRHRPLNRTQSAPLPQSTLAQLVIQQQHQQFLEKQKQYQQQIHMNKLLSKSIEQLKQPGSHLEEAEEELQGDQAMQEDRAPSSGNSTRSDSSACVDDTLGQVGAVKVKEEPVDSDEDAQIQEMESGEQAAFMQQPFLEPTHTRALSVRQAPLAAVGMDGLEKHRLVSRTHSSPAASVLPHPAMDRPLQPGSATGIAYDPLMLKHQCVCGNSTTHPEHAGRIQSIWSRLQETGLLNKCERIQGRKASLEEIQLVHSEHHSLLYGTNPLDGQKLDPRILLGDDSQKFFSSLPCGGLGVDSDTIWNELHSSGAARMAVGCVIELASKVASGELKNGFAVVRPPGHHAEESTAMGFCFFNSVAITAKYLRDQLNISKILIVDLDVHHGNGTQQAFYADPSILYISLHRYDEGNFFPGSGAPNEVGTGLGEGYNINIAWTGGLDPPMGDVEYLEAFRTIVKPVAKEFDPDMVLVSAGFDALEGHTPPLGGYKVTAKCFGHLTKQLMTLADGRVVLALEGGHDLTAICDASEACVNALLGNELEPLAEDILHQSPNMNAVISLQKIIEIQSMSLKFS
Regarding B3, the off-rate constant (koff) in test [1] came to 0.0082 s⁻¹. The molecule also came in with a Kd in test [2] of 19.1 nM.
